According to patent US20260242478A1 (published 2026):
Like-named read-outs stand apart in the source and are kept apart here. Where no end group is shown, it is not given here.

Legend:
[1] = biological target: T1, Anti-CD28 Fab (SEQ ID NOs: 696, 697); assay: phage binding ELISA; biotinylated anti-CD28 Fab on neutravidin plate, clonal phage supernatant, anti-M13 HRP detection;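 note: wells pretreated with blocking buffer, either plus or minus CD28 antigen, then given crude phage supernatant briefly without washing in between, then washed before anti-M13 HRP readout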
T1 construct: Biotinylated and captured on neutravidin coated plates in the panning ELISA

[2] = biological target: T1, Anti-CD28 Fab (SEQ ID NOs: 696, 697); assay: phage binding ELISA; anti-CD28 Fab on plate pre-incubated with CD28 antigen as competitor, anti-M13 HRP detection
[3] = biological target: T2, PSMA Fab (SEQ ID NOs: 19, 20); assay: competition ELISA, peptide titrated against 0.3 nM PSMA Fab on captured biotinylated PSMA
T2 construct: also called 006 PSMA Fab; anti-PSMA Fab

Ab-15 [4] = assay: competition ELISA: peptide titrated against 1 nM Ab-15; competitor plate-bound CD28
Ab-15 [5] = assay: binding ELISA: biotinylated peptide on neutravidin plate, Ab-15 titrated
Ab-15 [6] = assay: BLI (Octet): sensor loaded with 200 nM biotinylated peptide, 100 nM Ab-15
Ab-15 [7] = assay: BLI (Octet): biotinylated peptide on sensor, Ab-15 titrated, 1:1 model
[8] = biological target: T2, PSMA Fab (SEQ ID NOs: 19, 20); assay: competition ELISA, peptide titrated against 0.3 nM PSMA Fab on captured biotinylated PSMA; remark: listed apart in the source
PSMA Fab [9] = biological target: T3, PSMA Fab (Fab biotinylated for capture on neutravidin plates (site not given)); assay: phage ELISA: biotinylated PSMA Fab on neutravidin plate, clonal phage supernatant, anti-M13 HRP; blocking buffer alone
T3 construct: also called Anti-PSMA Fab; 006 PSMA Fab

PSMA Fab [10] = biological target: T3, PSMA Fab; assay: phage ELISA: biotinylated PSMA Fab on neutravidin plate, clonal phage supernatant, anti-M13 HRP; wells pre-incubated with PSMA antigen as competitor
[11] = biological target: T2, PSMA Fab (SEQ ID NOs: 19, 20); assay: competition ELISA, peptide titrated against 0.3 nM PSMA Fab on captured biotinylated PSMA; remark: listed apart in the source
anti-CD28 Fab = assay: competition ELISA: peptide titrated (0-100 µM) with 1 nM anti-CD28 Fab, binding to plate-bound CD28
[12] = biological target: T4, anti-CD28 scFv (disulfide); assay: competition ELISA: peptide titrated (0-100 µM) with 0.3 nM anti-CD28 scFv (disulfide), binding to plate-bound CD28
T4 construct: also called Anti-CD28 scFv (VH - linker 1 - VL) Disulfide mutation: G44C, G235C

B1: Phage-1705 (clonal phage displaying a Peptide-92 library peptide, SEQ ID NO: 2001) (peptide)
peptide: SCGGGFHYSWPLCF
modifications: cysteine pairing not given here; also: displayed as fusion to phage pIII, linker and order of fusion not given here
notes: not shown: pIII filament protein of the bacteriophage to which the peptide is fused
With B1 the “Anti-CD28 Fab signal (phage binding ELISA)” value [1] was 0.55 and the “Anti-CD28 Fab signal in the presence of CD28 (phage binding ELISA)” value (shortened to “Anti-CD28 Fab signal in the presence”) [2] was 0.15.

B2: Peptide-185 (peptide)
peptide: YECHQGLFHRWCVN
modifications: cysteine pairing not given here; also: biotinylated (site not given here)
notes: PSMA peptide mask (P2)
B2 gave an IC50 [3] of 23 µM.

B3: Peptide-71 (peptide)
peptide: IDWCPRYLWDECYN
modifications: cysteine pairing not given here; also: biotinylated, site not given here
notes: CD28 peptide mask
B3 was tested, and the IC50 (Ab-15 [4]) was 0.14 µM, the EC50 (Ab-15 [5]) was 0.0021 µM and the “Octet signal (200 nM peptide)” value (Ab-15 [6]) was 1.52. The Kd (Ab-15 [7]) was 0.016 µM and the t1/2 (Ab-15 [7]) was 9.1 min.

B4: Phage-1704 (clonal phage displaying a Peptide-92 library peptide, SEQ ID NO: 2000) (peptide)
peptide: SCAAGAGYGWPQCL
modifications: cysteine pairing not given here; also: displayed as fusion to phage pIII, linker and order of fusion not given here
notes: as for B1
B4 was tested, and the “Anti-CD28 Fab signal (phage binding ELISA)” value [1] was 0.55 and the “Anti-CD28 Fab signal in the presence” value [2] was 0.13.

B5: Peptide-175 (peptide)
peptide: HCKFHDYHSWYMCY
modifications: cysteine pairing not given here; also: biotinylated (site not given here)
notes: PSMA peptide mask (P2)
Binder B5 has an IC50 [8] of 17.8 µM.

B6: Phage-1706 (clonal phage displaying a Peptide-92 library peptide, SEQ ID NO: 2002) (peptide)
peptide: GCAAGFHYTLSTCL
modifications: cysteine pairing not given here; also: displayed as fusion to phage pIII, linker and order of fusion not given here
notes: as for B1
With B6 the “Anti-CD28 Fab signal (phage binding ELISA)” value [1] was 0.42 and the “Anti-CD28 Fab signal in the presence” value [2] was 0.05.

B7: Phage-4011 (peptide, not shown: large carriers)
peptide: GWRQCEPVWMCSGF
notes: Clonal phage of the Peptide-180 library
B7 was tested, and the “phage binding ELISA signal” value (PSMA Fab [9]) was 0.423 and the “phage binding ELISA signal” value (PSMA Fab [10]) was 0.0672.

B8: Phage-4012 (peptide, not shown: large carriers)
peptide: MRSVCVPSWMCSGF
notes: as for B7
With B8 the “phage binding ELISA signal” value (PSMA Fab [9]) was 0.422 and the “phage binding ELISA signal” value (PSMA Fab [10]) was 0.176.

B9: Peptide-181 (peptide)
peptide: PELRCVPFWMCSFN
modifications: cysteine pairing not given here; also: biotinylated (site not given here)
notes: PSMA peptide mask (P2)
For B9, the IC50 [11] was 26.1 µM and the IC50 [3] was 11.2 µM.

B10: Peptide-158 (peptide)
peptide: YECHQGLFHRWCVN
modifications: cysteine pairing not given here; also: biotinylated (site not given here)
notes: PSMA peptide mask (P2)
Binder B10 has an IC50 [8] of 17.3 µM.

B11: Peptide-92 (peptide)
peptide: SCAAGASYAWPYCL
Work on B11 yielded an IC50 (anti-CD28 Fab) of 7.89 µM.

B12: Peptide-106 (peptide)
peptide: SCAAGASYAWPYCA
With B12 the IC50 (anti-CD28 Fab) was 76.4 µM.

B13: Peptide-99 (peptide)
peptide: ACAAGASYAWPYCL
For B13, the IC50 (anti-CD28 Fab) was 21 µM and the IC50 [12] was 67 µM.

B14: Peptide-105 (peptide)
peptide: SCAAGASYAWPACL
B14 was tested, and the IC50 (anti-CD28 Fab) was 13 µM and the IC50 [12] was 56.9 µM.

B15: Peptide-101 (peptide)
peptide: SCAAGAAYAWPYCL
B15 gave an IC50 (anti-CD28 Fab) of 7.42 µM and an IC50 [12] of 36.2 µM.

B16: Peptide-180 (peptide)
peptide: IAVLCQPNWMCAGF
modifications: cysteine pairing not given here; also: biotinylated (site not given here)
notes: PSMA peptide mask (P2)
With B16 the IC50 [11] was 4.5 µM and the IC50 [3] was 4.54 µM.

B17: Peptide-166 (peptide)
peptide: PLCGTEEVWWECRL
modifications: cysteine pairing not given here; also: biotinylated (site not given here)
notes: PSMA peptide mask (P2)
Work on B17 yielded an IC50 [8] of 19.2 µM.

B18: Peptide-179 (peptide)
peptide: LMKWCTPRWMCAAE
modifications: cysteine pairing not given here; also: biotinylated (site not given here)
notes: PSMA peptide mask (P2)
In the case of B18, the IC50 [11] is reported as 4.6 µM and the IC50 [3] is reported as 4.44 µM.

B19: Phage-4010 (peptide, not shown: large carriers)
peptide: FEVRCVPTWMCAGQ
notes: as for B7
In the case of B19, the “phage binding ELISA signal” value (PSMA Fab [9]) is reported as 0.427 and the “phage binding ELISA signal” value (PSMA Fab [10]) is reported as 0.069.

B20: Phage-4013 (peptide, not shown: large carriers)
peptide: APRMCSPPWMCYEL
notes: as for B7
In the case of B20, the “phage binding ELISA signal” value (PSMA Fab [9]) is reported as 0.416 and the “phage binding ELISA signal” value (PSMA Fab [10]) is reported as 0.0661.

B21: Peptide-188 (peptide)
peptide: IECAYMTDQRFWCW
modifications: cysteine pairing not given here; also: biotinylated (site not given here)
notes: PSMA peptide mask (P2)
In the case of B21, the IC50 [3] is reported as 7.22 µM.

B22: Peptide-178 (peptide)
peptide: PDCVYHSFWGYSCR
modifications: cysteine pairing not given here; also: biotinylated (site not given here)
notes: PSMA peptide mask (P2)
In the case of B22, the IC50 [8] is reported as 20.8 µM.
